Biological target: the molecule itself
Assay: cryo-EM structure

B1: Rsph16 (natural protein, mouse, UniProt Q80Y75 1-316, looked up)
chain: MGLDYYAVLQVTRNSEDAQIKKAYRKLALKNHPLKSSEPGAPEIFKQIAEAYDVLSDPVKRGIYDKFGEEGLKGGIPLEFGSQTPWTTGYVFHGNPDKVFHEFFGGDNPFSEFFDAEGNDIDLNFGGLWGRGVQKQDPPIERDLYLSLEDLFFGCTKKIKISRRVLNEDRYSSTIKDKILTIDVRPGWRQGTRITFEKEGDQGPNIIPADIIFIVKEKLHPRFRREHDNLFFVYPIPLGKALTCCTVEVKTLDDRLLNIPINDIVHPKYFKIVPGEGMPLPENPSKKGDLFIFFDIQFPTRLTPQKKQMLRQALLT
Question: B1 was tested. Which “stoichiometry N” value did it give?
Answer: Its value is 2.

From publication doi:10.1101/2023.06.02.543457 (bioRxiv, 2023)
